Series [1] in a line: Solubility of recombinant lectins in urea. The following applies: bacterially expressed recombinant lectin. Type of series: physicochemical.
Method: Expression of human HL-3 and HL-13 coding sequences was performed using the same method for expression of XL-35. […] Purification and renaturation carried out as for XL35.
Series [2] concerns trypsinized, glutaraldehyde-fixed rabbit erythrocytes. Kind of series: Erythrocyte agglutination assay. Type of series: cell-based. The protocol: The assay was performed essentially as described using trypsinized, glutaraldehyde-fixed rabbit erythrocytes [Barondes and Roberson (1987) Methods Enzymol. 138, 516-20] in TCS buffer (10 mM Tris, pH 7.6, 10 mM CaCl2, 150 mM NaCl). To compare the agglutination properties of both the purified and recombinant lectins, the two lectins were assayed under similar conditions. Because the eluted recombinant lectin was in 8 M urea, a solution of purified non-recombinant lectin was also brought to 8 M with a concentrated urea solution. The agglutination assay was performed using […] of either recombinant or native XL35 lectin in […] TCS and 8 M urea was added to wells of a 96-well microtiter plate. Next, […] of TCS alone or TCS containing 0.4 M EDTA or 1.0 M melibiose or 1.0 M sucrose was added to the wells and mixed with the lectin solution. To this solution, 50 ml of a 1:1 suspension of trypsinized, glutaraldehyde-fixed rabbit erythrocytes in TCS was added and the contents of the wells were mixed by trituration. The final concentration of urea in the wells was 2 M, while that of EDTA was 0.10 M and that of melibiose and sucrose were 0.25 M. Agglutination activity was scored after 1.5 hr. at room temperature using an inverted microscope on low power. […]

A short description of series [3]: Melibiose affinity chromatography (binding to immobilized melibiose). Conditions: in the presence of Ca2+. The method, then:
The rabbit, mouse, Xenopus laevis heart extracts, and various in vitro translation products were applied to a column of immobilized melibiose-agarose to analyze carbohydrate binding specificity. The heart extracts of rabbit, mouse, and Xenopus laevis were prepared by the method as described above and applied to a melibiose affinity column (total volume, 1 ml on Econo column) that was pre-equilibrated with TCS. After washing with 10 ml of TCS containing 0.3 M sucrose, bound protein was eluted with TCS containing 0.1 M EDTA. One ml of each fraction was collected and subjected to western blotting followed by 4-15% SDS-PAGE. Each 30 μl of in vitro translation product was diluted with 2×TCS (1:1) and applied to the melibiose column using same method. After separation of fractions on 4-15% SDS-PAGE, the results were analyzed by autoradiography.

This note sets out measurements from patent US6524820B1, “Lectins and coding sequences” (University of Georgia Research Foundation, Inc., priority 1997, dated 2003).

Entries after “also recorded” stand apart in the source; their conditions may differ.

B1: XL35: soluble, calcium-dependent lectin from Xenopus laevis oocytes, SEQ ID NO:2 (protein)
chain: MLVHILLLLVTGGLSQSCDPVVIVASKNMVKQLDCDKFRNCKEIKDSNEEAQDGIYTLTSPDGISYQTFCDMTTNGGGWTLVASVHENNMAGKCTIGDRWSSQQGNRADYPEGDGNWANYNTFGSAGGATSDDYKNPGYYDIEAYNLGVWHVPNKTPLSVWRNSSLQRYRTTDGILFKHGGNLFSLYRIYPVKYGIGSCSKDSGPTVPVVYDLGSANLTASFYSPGFRSQFTPGYIQFRPINTEKAALALCPGMKMESCNVEHVCIGGGGYFPEADPRQCGDFAAYDFNGYGTKKFNSAGIEITEAAVLLFYL
As to B1, the “concentration of urea required for solution” value in series [1] amounted to 2 M. The “agglutination activity retained relative to assay in TCS alone” value in series [2] (after 1.5 hr in TCS plus 2 M urea) is given as 25-50%. In series [2] (in 2 M urea), the “agglutination of trypsinized, fixed rabbit erythrocytes” value is on record as “active”.

B2: HL-3: human calcium-dependent lectin family member, homolog of XL35, SEQ ID NO:4 (protein)
chain: MNQLSFLLFLIATTRGWSTDEANTYFKEWTCSSSPSLPRSCKEIKDECPSAFDGLYFLRTENGVIYQTFCDMTSGGGGWTLVASVHENDMRGKCTVGDRWSSQQGSKADYPEGDGNWANYNTFGSAEAATSDDYKNPGYYDIQAKDLGIWHVPNKSPMQHWRNSSLLRYRTDTGFLQTLGHNLFGIYQKYPVKYGEGKCWTDNGPVIPVVYDFGDAQKTASYYSPYGQREFTAGFVQFRVFNNERAANALCAGMRVTGCNTEHHCIGGGGYFPEASPQQCGDFSGFDWSGYGTHVGYSSSREITEAAVLLFYR
B2: the “binding to immobilized melibiose” value in series [3] was “no in vitro translation products of HL-3 and HL-13 bound; also recorded: do not appear to bind specifically”.

B3: HL-13: human homolog of XL35 expressed in small intestine, SEQ ID NO:6 (protein)
chain: MLSMLRTMTRLCFLLFFSVATSGCSAAAASSLEMLSREFETCAFSFSSLPRSCKEIKERCHSAGDGLYFLRTKNGVVYQTFCDMTSGGGGWTLVASVHENDMRGKCTVGDRWSSQQGNKADYPEGDGNWANYNTFGSAEAATSDDYKNPGYYDIQAKDLGIWHVPNKSPMQHWRNSALLRYRTNTGFLQRLGHNLFGIYQKYPVKYRSGKCWNDNGPAIPVVYDFGDAKKTASYYSPYGQREFVAGFVQFRVFNNERAANALCAGIKVTGCNTEHHCIGGGGFFPQGKPRQCGDFSAFDWDGYGTHVKSSCSREITEAAVLLFYR
Take B3: in series [3], the “binding to immobilized melibiose” value is “no in vitro translation products of HL-3 and HL-13 bound; also recorded: do not appear to bind specifically”.
